Reference: the supplement of paper PMC10126150
± gives the standard deviation of the averaged measurements.

Test system: ATP
Test: switch fluorescence ratio, 500 uM ATP over buffer (Cy3 cluster intensity, sum of 5 cycles each) (fold (ratio)); higher = stronger signal-on switching upon ATP binding; sequences stand for … in TCGTCGGCAGCGTCAGATGTGTATAAGAGACAGTTTTTTTTTTTTTTTTTTTTTTTTT…TC
Conditions: aptamer strand: ATP DNA aptamer (quencher-CACCTGGGGGAGTATTGCGGAGGAAGG + anchor), 100 nM annealed; ATP concentration: 500 uM
How it was run: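 The fluorescence ratio divides summed target-cycle Cy3 intensity by summed buffer-cycle Cy3 intensity for each cluster and is averaged per switch-domain sequence. Cy3-labelled switching-strand clusters on a modified Illumina MiSeq flow-cell were annealed to 100 nM quencher-labelled ATP aptamer, then imaged in selection buffer and again after 15 min with 500 uM ATP at 22 °C. Five such cycles were run, with NaOH stripping and re-annealing between them, and clusters outside 100-1000 RFU were excluded.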
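Also: ATP exposure 15 min at 22 °C before imaging.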

Question: Which switch fluorescence ratio does the source give for TTCGATGTGG here?
Answer: 1.01 ± 0.018

Question: How did the switch fluorescence ratio turn out when TTCGATTACG was run?
Answer: 1.03 ± 0.018

Question: With TTCGCGACTT as the sequence, how does the switch fluorescence ratio read?
Answer: 0.987 ± 0.029

Question: How did the switch fluorescence ratio turn out when TTCGCGGGTG was run?
Answer: 1.05 ± 0.025

Question: TTCGCTCGAG was tested. Which switch fluorescence ratio did it give?
Answer: 1 ± 0.017

Question: Which switch fluorescence ratio does the source give for TTCGCTCTTT here?
Answer: 1.06 ± 0.025

Question: How did the switch fluorescence ratio turn out when TTCGCTGTTC was run?
Answer: 1.28 ± 0.027

Question: TTCGCTTTTT was tested. Which switch fluorescence ratio did it give?
Answer: 0.991 ± 0.032

Question: Which switch fluorescence ratio does the source give for TTCGGAGGAG here?
Answer: 1 ± 0.012

Question: How did the switch fluorescence ratio turn out when TTCGGAGGAT was run?
Answer: 1.02 ± 0.048

Question: TTCGGAGGCT was tested. Which switch fluorescence ratio did it give?
Answer: 1.23 ± 0.3

Question: For TTCGGATAAT, which switch fluorescence ratio is on record?
Answer: 0.98 ± 0.011

Question: Which switch fluorescence ratio does the source give for TTCGGCCCCA here?
Answer: 0.99 ± 0.031

Question: For TTCGGCGCCA, which switch fluorescence ratio is on record?
Answer: 1.03 ± 0.013

Question: How did the switch fluorescence ratio turn out when TTCGGCGGTG was run?
Answer: 0.98 ± 0.045

Question: Which switch fluorescence ratio does the source give for TTCGGGAACA here?
Answer: 1.02 ± 0.038

Question: How did the switch fluorescence ratio turn out when TTCGGGACGC was run?
Answer: 1.03 ± 0.053

Question: How did the switch fluorescence ratio turn out when TTCGGGATTT was run?
Answer: 1.007 ± 0.0062

Question: With TTCGGGGAAT as the sequence, how does the switch fluorescence ratio read?
Answer: 0.982 ± 0.034

Question: With TTCGGGGACG as the sequence, how does the switch fluorescence ratio read?
Answer: 0.969 ± 0.052

Question: TTCGGGGATG was tested. Which switch fluorescence ratio did it give?
Answer: 0.991 ± 0.048

Question: With TTCGGGGGAG as the sequence, how does the switch fluorescence ratio read?
Answer: 0.979 ± 0.026

Question: TTCGGGGGCA was tested. Which switch fluorescence ratio did it give?
Answer: 1.01 ± 0.052

Question: Which switch fluorescence ratio does the source give for TTCGGGGGGC here?
Answer: 0.961 ± 0.039

Question: With TTCGGGGTTC as the sequence, how does the switch fluorescence ratio read?
Answer: 1.0029 ± 0.00079

Question: Which switch fluorescence ratio does the source give for TTCGGTACGT here?
Answer: 0.999 ± 0.0024

Question: For TTCGGTCACC, which switch fluorescence ratio is on record?
Answer: 1.014 ± 0.0054

Question: TTCGGTGAAG was tested. Which switch fluorescence ratio did it give?
Answer: 1.01 ± 0.0051

Question: For TTCGGTGTGG, which switch fluorescence ratio is on record?
Answer: 1.01 ± 0.04

Question: For TTCGGTTATA, which switch fluorescence ratio is on record?
Answer: 0.986 ± 0.053

Question: How did the switch fluorescence ratio turn out when TTCGGTTGGT was run?
Answer: 1.01 ± 0.029

Question: TTCGGTTTGC was tested. Which switch fluorescence ratio did it give?
Answer: 1.02 ± 0.066

Question: For TTCGGTTTGT, which switch fluorescence ratio is on record?
Answer: 0.98 ± 0.032

Question: TTCGTAAGTT was tested. Which switch fluorescence ratio did it give?
Answer: 0.99485 ± 0.00084

Question: TTCGTAGGCA was tested. Which switch fluorescence ratio did it give?
Answer: 1.02 ± 0.042

Question: How did the switch fluorescence ratio turn out when TTCGTATACC was run?
Answer: 0.988 ± 0.051

Question: How did the switch fluorescence ratio turn out when TTCGTATAGC was run?
Answer: 1.03 ± 0.036

Question: Which switch fluorescence ratio does the source give for TTCGTCAGGA here?
Answer: 0.978 ± 0.036

Question: Which switch fluorescence ratio does the source give for TTCGTCAGTG here?
Answer: 0.986 ± 0.013

Question: How did the switch fluorescence ratio turn out when TTCGTGAATT was run?
Answer: 1.11 ± 0.1

Question: How did the switch fluorescence ratio turn out when TTCGTGCTTC was run?
Answer: 0.963 ± 0.024

Question: TTCGTGGGGC was tested. Which switch fluorescence ratio did it give?
Answer: 1.18 ± 0.21

Question: Which switch fluorescence ratio does the source give for TTCGTGGTGT here?
Answer: 1.03 ± 0.015

Question: For TTCGTGGTTG, which switch fluorescence ratio is on record?
Answer: 0.967 ± 0.034

Question: With TTCGTGTGGC as the sequence, how does the switch fluorescence ratio read?
Answer: 0.932 ± 0.02

Question: Which switch fluorescence ratio does the source give for TTCGTGTTAC here?
Answer: 1.32 ± 0.26

Question: TTCGTGTTCT was tested. Which switch fluorescence ratio did it give?
Answer: 1 ± 0.03

Question: Which switch fluorescence ratio does the source give for TTCGTTAGAA here?
Answer: 1.0091 ± 0.00067

Question: With TTCGTTCGAA as the sequence, how does the switch fluorescence ratio read?
Answer: 1.03 ± 0.067

Question: How did the switch fluorescence ratio turn out when TTCGTTTGGG was run?
Answer: 0.967 ± 0.047

Question: With TTCGTTTTCG as the sequence, how does the switch fluorescence ratio read?
Answer: 0.991 ± 0.029

Question: Which switch fluorescence ratio does the source give for TTCGTTTTGG here?
Answer: 1.01 ± 0.038

Question: With TTCGTTTTTC as the sequence, how does the switch fluorescence ratio read?
Answer: 0.956 ± 0.035

Question: With TTCTAAAAAT as the sequence, how does the switch fluorescence ratio read?
Answer: 1.06 ± 0.023

Question: How did the switch fluorescence ratio turn out when TTCTACACAG was run?
Answer: 1.04 ± 0.032

Question: With TTCTAGCTAT as the sequence, how does the switch fluorescence ratio read?
Answer: 1.58 ± 0.78

Question: With TTCTAGGGGT as the sequence, how does the switch fluorescence ratio read?
Answer: 0.966 ± 0.012

Question: Which switch fluorescence ratio does the source give for TTCTATACCG here?
Answer: 0.982 ± 0.036

Question: Which switch fluorescence ratio does the source give for TTCTATTCGA here?
Answer: 1.008 ± 0.0058

Question: With TTCTCGGACG as the sequence, how does the switch fluorescence ratio read?
Answer: 0.991 ± 0.017

Question: TTCTCGGGCT was tested. Which switch fluorescence ratio did it give?
Answer: 0.994 ± 0.031

Question: With TTCTCGGGTT as the sequence, how does the switch fluorescence ratio read?
Answer: 0.99 ± 0.023

Question: For TTCTCGTTGG, which switch fluorescence ratio is on record?
Answer: 1.02 ± 0.032

Question: TTCTCTGGGG was tested. Which switch fluorescence ratio did it give?
Answer: 1.025 ± 0.0071

Question: TTCTGATTAT was tested. Which switch fluorescence ratio did it give?
Answer: 1 ± 0.035

Question: How did the switch fluorescence ratio turn out when TTCTGCGTGC was run?
Answer: 1.85 ± 1.5

Question: For TTCTGGATCC, which switch fluorescence ratio is on record?
Answer: 1.02 ± 0.043

Question: How did the switch fluorescence ratio turn out when TTCTGGCTAT was run?
Answer: 1.01 ± 0.039

Question: Which switch fluorescence ratio does the source give for TTCTGGGACT here?
Answer: 0.999 ± 0.021

Question: Which switch fluorescence ratio does the source give for TTCTGGGCGG here?
Answer: 1.02 ± 0.032

Question: Which switch fluorescence ratio does the source give for TTCTGGGGAT here?
Answer: 1.009 ± 0.0014

Question: How did the switch fluorescence ratio turn out when TTCTGGGGGC was run?
Answer: 1.05 ± 0.064

Question: For TTCTGGTATA, which switch fluorescence ratio is on record?
Answer: 1.02 ± 0.024

Question: For TTCTGGTTAC, which switch fluorescence ratio is on record?
Answer: 1.059 ± 0.004

Question: With TTCTGTCCAC as the sequence, how does the switch fluorescence ratio read?
Answer: 1.03 ± 0.013

Question: For TTCTGTGGCG, which switch fluorescence ratio is on record?
Answer: 1 ± 0.069

Question: How did the switch fluorescence ratio turn out when TTCTGTGTTT was run?
Answer: 1.01 ± 0.037

Question: TTCTGTTCGC was tested. Which switch fluorescence ratio did it give?
Answer: 1.03 ± 0.025

Question: TTCTGTTGGT was tested. Which switch fluorescence ratio did it give?
Answer: 1.02 ± 0.087

Question: TTCTGTTTCT was tested. Which switch fluorescence ratio did it give?
Answer: 0.995 ± 0.011

Question: How did the switch fluorescence ratio turn out when TTCTTAGCAC was run?
Answer: 1.58 ± 0.17

Question: For TTCTTAGCTT, which switch fluorescence ratio is on record?
Answer: 0.998 ± 0.019

Question: TTCTTATTGT was tested. Which switch fluorescence ratio did it give?
Answer: 0.975 ± 0.019

Question: Which switch fluorescence ratio does the source give for TTCTTCCTTT here?
Answer: 1.028 ± 0.0051

Question: Which switch fluorescence ratio does the source give for TTCTTGCGCC here?
Answer: 1.076 ± 0.0073
